Experimental data reported in paper PMC11352241, “Detection of Hepatocellular Carcinoma in an Orthotopic Patient-Derived Xenograft with an Epithelial Cell Adhesion Molecule-Specific Peptide” (Cancers, 2024).
Residues, ends and D or L forms follow the SMILES beside them. No end group written: not given here. *: point of attachment. X2 = CC1(C)C(=CC=C2CCCC(C=CC3=[N+](CCCCS(=O)(=O)[O-])c4ccc(S(=O)(=O)O)cc4C3(C)C)=C2Oc2ccc(S(=O)(=O)O)cc2)N(CCCCCC(=O)NCCN2C(=O)CC(*)C2=O)c2ccc(S(=O)(=O)O)cc21; IRDye800 = IRDye800 near-infrared fluorophore

Tests used:
[1] = test system: human HCC patient-derived xenograft (PDX) tumors; test: In vivo whole-body NIR fluorescence imaging, orthotopic HCC PDX
Experimental: Orthotopic HCC mice were used for imaging ~3–4 weeks post-implantation.
IRDye800-labeled target and control peptides (300 μM, 200 μL PBS), unlabeled target peptide (block, 1.5 mM, 100 μL), and ICG (2.46 mg/kg) were injected in tumor-bearing animals using the tail vein. Unlabeled target peptide was injected 30 min prior to the IRDye800-labeled target peptide to compete for binding. The Pearl Trilogy (LI-COR Biosciences) was used to collect whole-body NIR fluorescence images over a time frame of 24 h post-injection.

[2] = Peptide biodistribution in harvested organs; format: in vivo, mouse; conditions: organs harvested 1.5 h post-injection, NIR fluorescence
Experimental: PDX-implanted mouse livers were exposed by making a small (1–2 cm) incision in the abdomen below the sternum. A custom laparoscope that collects white light and fluorescence images (λex = 785 nm) concurrently were used to image the liver region at 1.5 h post-injection via the tail vein [34]. IRDye800-labeled peptides, unlabeled peptide, and ICG were administrated as described above. Once imaging was completed, major organs, including the heart, spleen, lung, liver, brain, stomach, kidney, and intestine, were collected and imaged with white light and fluorescence to evaluate peptide biodistribution.

Serum stability = format: in vitro ADME; conditions: 30 μM IRDye800-labeled peptide in mouse serum, 37 °C, 0, 0.5, 1.0, 1.5, 2, 3, 4 and 24 h, analytical RP-HPLC area under the peak; R^2 = 0.99; n = 6 mice in each group; read-out: half-life T1/2 in mouse serum (converted)
Experimental: IRDye800-labeled target peptide measuring 30 μM was incubated with mouse serum at time intervals ranging up to 24 h at 37 °C, and was monitored by analytical RP-HPLC. The relative peptide concentrations were determined by measuring the area under the peak (Waters, Breeze 2).

[3] = Animal necropsy for acute toxicity; format: in vivo, mouse; conditions: healthy mice, 48 h post-injection, 300 μM, 200 μL PBS; heart, liver, spleen, lung, kidney, stomach, intestine, brain
Experimental: Healthy mice were euthanized at 48 h post-injection with the IRDye800-labeled target peptide (300 μM, 200 μL PBS). Major organs, including liver, kidney, heart, lung, spleen, stomach, intestine, and brain, were resected and submitted for pathological evaluation to assess for acute toxicity.

tumors = conditions: ICG, EPR effect; cited from earlier work
From the text: An IRDye800-labeled chimeric monoclonal antibody 323/A3 was used to detect a broad range of tumors found clinically. Cell-derived xenograft colon, breast, head and neck, and peritoneal carcinomatosis tumors were implanted orthotopically. Tumor nodules with millimeter dimensions were detected with NIR fluorescence imaging that were not otherwise visible. […] Also, a 7-mer peptide YQ-S2 was labeled with the NIR fluorophore MPA [36]. The peptide was character ... || Image-guided surgery aims to remove all cancerous tissues, and thus requires an effective strategy to discriminate tumor cells from non-tumor cells. NIR fluorescence imaging can be used as an adjunct to conventional laparoscopy to assist the surgeon to identify small and missed lesions. The spectra of white light illumination and IRDye800 fluorescence are sufficiently separated so that both modalities can be used concurrently during surgery. ICG is FDA-approved, and this contrast agent is currently being used clinically to identify HCC in real time. The non-specific NIR dye gathers in t ...

EpCAM [4] = molecular target: T1, EpCAM (Homo sapiens, UniProt P16422); test: Binding competition with unlabeled peptide on Hep3B cells; format: cell-based; conditions: confocal microscopy
T1 construct: endogenous in cells; host or cells: Hep3B human hepatocellular carcinoma cells
T1 sequence (P16422 24-314): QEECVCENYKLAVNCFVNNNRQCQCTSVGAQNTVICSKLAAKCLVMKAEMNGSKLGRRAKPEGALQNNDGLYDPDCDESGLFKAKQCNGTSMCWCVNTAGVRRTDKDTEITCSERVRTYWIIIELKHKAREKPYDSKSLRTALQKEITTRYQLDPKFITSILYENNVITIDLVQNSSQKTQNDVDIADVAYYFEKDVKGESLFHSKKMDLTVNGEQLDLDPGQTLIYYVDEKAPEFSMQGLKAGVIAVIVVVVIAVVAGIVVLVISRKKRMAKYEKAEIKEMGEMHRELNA
Experimental: Unlabeled target and control peptide was added to IRDye800-labeled target peptides to compete for binding to EpCAM. Inverted confocal microscopy (Leica, Wetzlar, Germany, Stellaris 5) was used to acquire the NIR fluorescence images, and intensities were measured with custom MATLAB (Mathworks) software (Matlab version R2023a).

EpCAM [5] = conditions: read-out: binding affinity kd; cited from earlier work
From the text: An IRDye800-labeled chimeric monoclonal antibody 323/A3 was used to detect a broad range of tumors found clinically. Cell-derived xenograft colon, breast, head and neck, and peritoneal carcinomatosis tumors were implanted orthotopically. Tumor nodules with millimeter dimensions were detected with NIR fluorescence imaging that were not otherwise visible. […] Also, a 7-mer peptide YQ-S2 was labeled with the NIR fluorophore MPA [36]. The peptide was character ...

HPD*-IRDye800 = molecular target: T2, HPD*-IRDye800; test: Hep3B cell binding
T2 chain: HPDMFTRTHSHNGGGSC-IRDye800

CSCC[C@H](NC(=O)[C@H](CC(=O)O)NC(=O)[C@@H]1CCCN1C(=O)[C@@H](N)Cc1c[nH]cn1)C(=O)N[C@@H](Cc1ccccc1)C(=O)N[C@H](C(=O)N[C@@H](CCCNC(=N)N)C(=O)N[C@H](C(=O)N[C@@H](Cc1c[nH]cn1)C(=O)N[C@@H](CO)C(=O)N[C@@H](Cc1c[nH]cn1)C(=O)N[C@@H](CC(N)=O)C(=O)NCC(=O)NCC(=O)NCC(=O)N[C@@H](CO)C(=O)N[C@@H](CSC1CC(=O)N(CCNC(=O)CCCCCN2C(=CC=C3CCCC(C=CC4=[N+](CCCCS(=O)(=O)[O-])c5ccc(S(=O)(=O)O)cc5C4(C)C)=C3Oc3ccc(S(=O)(=O)O)cc3)C(C)(C)c3cc(S(=O)(=O)O)ccc32)C1=O)C(N)=O)[C@@H](C)O)[C@@H](C)O (some centres unmarked) [HPD*-IRDye800] (H-HPDMFTRTHSHNGGGSC(X2)-NH2)
time of return of intensity to baseline ([1]; whole-body fluorescence images post-injection): ~ 24 h
time of peak uptake by HCC tumor post-injection ([1]; whole-body fluorescence, 300 μM, 200 μL PBS, tail vein, orthotopic HCC PDX in NSG mice, n = 6): 1.5 h
uptake in kidney [2]: High uptake
half-life at 30 μM (Serum stability): 156 min
acute toxicity on histopathology of major organs [3]: No signs of acute peptide toxicity

CC1(C)C(/C=C/C=C/C=C/C=C2\N(CCCCS(=O)(=O)O)c3ccc4ccccc4c3C2(C)C)=[N+](CCCCS(=O)(=O)[O-])c2ccc3ccccc3c21 [ICG, indocyanine green, reference compound]
T/B ratio at peak uptake ([1]; whole-body imaging, 1.5 h post-injection, tail vein, labeled peptides 300 μM, 200 μL, block = unlabeled HPD* before HPD*-IRDye800, ICG 2.46 mg/kg, mean ± SD, n = 6): 1.26 ± 0.05
time of maximum tumor absorption post-injection (tumors): > 48 h

HPDMFTRTHSHN [HPD*, unlabeled 12-mer EpCAM target peptide …]
effect of unlabeled peptide on HPD*-IRDye800 fluorescence intensity (EpCAM [4]): decrease significantly

PFHDMHSNHTRT [PFH*, unlabeled scrambled control peptide …]
effect of unlabeled peptide on HPD*-IRDye800 fluorescence intensity (EpCAM [4]): did not show an intensity reduction

SNFYMPL [7-mer EpCAM peptide used to label a pH-sensitive polymeric micelle encapsulating paclitaxel]
Kd (EpCAM [5]): 164 nM

B1: EpCAM (protein)
chain: QEECVCENYKLAVNCFVNNNRQCQCTSVGAQNTVICSKLAAKCLVMKAEMNGSKLGRRAKPEGALQNNDGLYDPDCDESGLFKAKQCNGTSMCWCVNTAGVRRTDKDTEITCSERVRTYWIIIELKHKAREKPYDSKSLRTALQKEITTRYQLDPKFITSILYENNVITIDLVQNSSQKTQNDVDIADVAYYFEKDVKGESLFHSKKMDLTVNGEQLDLDPGQTLIYYVDEKAPEFSMQGLK
Kd (HPD*-IRDye800): 67 nM
